Assay results reported in publication doi:10.1101/2021.12.04.471219 (bioRxiv, 2021).
Where no end group is shown, it is not given here.

Assays:
Test in all cases: MST
[1] = target: PARD3 PDZ3 domain (residues 582-685) (human, UniProt Q8TEW0 582-685)
[2] = target: T1, ZO-1 PDZ2 domain (residues 184-264) (human, UniProt Q07157 184-264)
T1 sequence: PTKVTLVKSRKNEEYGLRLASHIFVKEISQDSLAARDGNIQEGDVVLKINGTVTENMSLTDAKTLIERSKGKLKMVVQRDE

[3] = target: T2, MPP5 PDZ domain (residues 238-336) (human, UniProt Q8N3R9 238-336)
T2 sequence: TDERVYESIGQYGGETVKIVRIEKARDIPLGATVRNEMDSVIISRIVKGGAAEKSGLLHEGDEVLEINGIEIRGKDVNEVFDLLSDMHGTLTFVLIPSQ

[4] = target: T3, LNX2 PDZ2 domain (residues 334-426) (human, UniProt Q8N448 334-426)
T3 sequence: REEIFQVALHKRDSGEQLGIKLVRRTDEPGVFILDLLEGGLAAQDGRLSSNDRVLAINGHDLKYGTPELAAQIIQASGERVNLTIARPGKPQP

[5] = target: MLLT4 PDZ domain (residues 961-1056) (human) (UniProt P55196)

PARD3 PDZ3 domain (residues 582-685), sequence (Q8TEW0 582-685): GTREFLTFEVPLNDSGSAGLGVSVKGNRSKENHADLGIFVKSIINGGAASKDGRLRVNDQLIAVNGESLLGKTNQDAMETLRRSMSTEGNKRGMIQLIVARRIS

B1: C-terminal SARS-CoV-2-E PBM P71L mutant peptide (12-mer, beta variant B.1.351) (peptide)
peptide: NLNSSRVLDLLV
modifications: not fully specified
Kd [1]: > 1000 µM
Kd [2]: 133 µM
binding result [3]: binds
Kd [4]: 47 µM
Kd [5]: > 1000 µM
